The results in this text go back to paper PMC10960667 (Molecular cell, 2024).

The target of the assay is T1, recombinant full-length IκBζ wild type with 8×His-MBP tag (human, UniProt Q9BYH8-1 1-718).
T1 sequence (looked up): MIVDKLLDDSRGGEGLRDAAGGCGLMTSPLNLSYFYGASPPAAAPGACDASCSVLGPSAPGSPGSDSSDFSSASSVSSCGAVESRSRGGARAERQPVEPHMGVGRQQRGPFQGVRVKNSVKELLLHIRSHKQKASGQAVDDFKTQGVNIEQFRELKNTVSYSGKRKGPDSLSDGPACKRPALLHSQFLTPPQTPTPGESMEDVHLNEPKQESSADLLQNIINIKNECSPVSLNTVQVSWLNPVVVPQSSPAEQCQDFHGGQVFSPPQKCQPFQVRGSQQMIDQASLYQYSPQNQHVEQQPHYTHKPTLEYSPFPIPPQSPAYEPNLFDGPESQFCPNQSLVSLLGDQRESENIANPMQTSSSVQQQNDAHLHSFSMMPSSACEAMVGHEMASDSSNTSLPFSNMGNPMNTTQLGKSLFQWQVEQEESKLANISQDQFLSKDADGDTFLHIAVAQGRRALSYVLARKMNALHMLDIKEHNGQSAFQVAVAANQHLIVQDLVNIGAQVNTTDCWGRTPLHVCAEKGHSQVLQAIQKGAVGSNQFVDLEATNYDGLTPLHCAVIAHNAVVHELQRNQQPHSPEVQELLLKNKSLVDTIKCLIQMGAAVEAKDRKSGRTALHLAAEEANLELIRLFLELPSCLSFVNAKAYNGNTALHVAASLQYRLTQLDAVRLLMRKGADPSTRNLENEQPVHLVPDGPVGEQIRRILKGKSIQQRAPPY
The assay is described as follows: pull-down.

B1: recombinant full-length OCT6 with N-terminal 6×His-ECFP tag (natural protein, UniProt Q03052 1-451, looked up)
chain: MATTAQYLPRGPGGGAGGTGPLMHPDAAAAAAAAAAAERLHAGAAYREVQKLMHHEWLGAGAGHPVGLAHPQWLPTGGGGGGDWAGGPHLEHGKAGGGGTGRADDGGGGGGFHARLVHQGAAHAGAAWAQGSTAHHLGPAMSPSPGASGGHQPQPLGLYAQAAYPGGGGGGLAGMLAAGGGGAGPGLHHALHEDGHEAQLEPSPPPHLGAHGHAHGHAHAGGLHAAAAHLHPGAGGGGSSVGEHSDEDAPSSDDLEQFAKQFKQRRIKLGFTQADVGLALGTLYGNVFSQTTICRFEALQLSFKNMCKLKPLLNKWLEETDSSSGSPTNLDKIAAQGRKRKKRTSIEVGVKGALESHFLKCPKPSAHEITGLADSLQLEKEVVRVWFCNRRQKEKRMTPAAGAGHPPMDDVYAPGELGPGGGGASPPSAPPPPPPAALHHHHHHTLPGSVQ
For B1, the binding result is “binds”.
